{"source": "paper PMC2709225", "about": "(Nature structural & molecular biology, 2009)", "proteins": {"B1": {"name": "stabilised full-length ectodomain of human hedgehog-interacting protein HIP (eHIPS) (domain or fragment, UniProt Q96QV1-1 56-670, looked up)", "chain": "MSQLELLSGGEMLCGGFYPRLSCCLRSDSPGLGRLENKIFSVTNNTECGKLLEEIKCALCSPHSQSLFHSPEREVLERDLVLPLLCKDYCKEFFYTCRGHIPGFLQTTADEFCFYYARKDGGLCFPDFPRKQVAGPASNYLDQMEEYDKVEEISAAHKHNCFCIQEVVSGLRQPVGALHSGDGSQRLFILEKEGYVKILTPEGEIFKEPYLDIHKLVQSGIKGGDERGLLSLAFHPNYKKNGKLYVSYTTNQERWAIGPHDHILRVVEYTVSRKNPHQVDLRTARVFLEVAELHRKHLGGQLLFGPDGFLYIILGDGMITLDDMEEMDGLSDFTGSVLRLDVDTDMCNVPYSIPRSNPHFNSTNQPPEVFAHGLHDPGRCAVDRHPTDININLTILCSDSNGKNRSSARILQIIKGKDYESEPSLLEFKPFSNGPLVGGFVYRGCQSERLYGSYVFGDRNGNFLTLQQSPVTKQWQEKPLCLGTSGSCRGYFSGHILGFGEDELGEVYILSSSKSMTQTHNGKLYKIVDPKRPLMPEECRATVQPAQTLTSECSRLCRNGYCTPTGKCCCSPGWEGDFCRTAKCEPACRHGGVCVRPNKCLCKKGYLGPQCEQVD", "modifications": "enzymatically biotinylated within an engineered C-terminal tag (form attached to the SPR surface); fully glycosylated for MALS"}}, "biological_target": "the molecule itself", "experiment": "SEC-MALS"}
{"protein": "B1", "values": [{"measurement": "stoichiometry N", "result": 2}]}
